{"source": "paper PMC4996947", "about": "“Rapid α-oligomer formation mediated by the Aβ C terminus initiates an amyloid assembly pathway” (Nature Communications, 2016)", "key": {"[1]": {"assay": "Segmental HX-MS of the C-terminal pepsin fragment (35–42/35–40) of mature fibrils", "type": "physicochemical", "conditions": "mature amyloid fibrils, pepsin cleavage between Leu34 and Met35", "text": "According to our hypothesis and designs of the peptide models, we expected the Aβ segments of the hybrid peptides to not be involved in amyloid core formation. […] Since the typical α-helix band in FTIR overlaps the characteristic polyQ amyloid band at ∼1,657 cm^−1 (ref. [23]), it is not expected that we might observe any α-helical structure in these fibrils that might be analogous to the HTT^NT α-helix in HTT exon1 fibrils. To address whether a portion of the Aβ segment might be involved in stable β-structure in the fibrils, we used hydrogen–deuterium exchange evaluated by mass spectrometry (HX-MS). […] The absence of a large amount of β-structure within the Aβ segment of the polyQ-Aβ hybrid fibrils is consistent with the total β-structure content of about 50% seen in the CD spectra of the final amyloid suspensions (Figs 2j, 3h and 4j) of peptides containing about 50% Gln residues. […]\nAll HX-MS data were analysed using an Agilent 1100 series single quadruple ESI mass spectrometer. Aggregates were washed and incubated in D2O and the exchange reactions analysed after an appropriate exchange time. Global HX was analysed by simultaneous dissolution and MS analysis of the exchange reaction using a T-tube front end to the MS[62]; data were not corrected for back-exchange. […]"}, "[2]": {"conditions": "cited from earlier work", "procedure": "Table 1 Amyloid nucleation and stabilization data. | column: Cr (μM) || We also addressed whether the Aβ appendages of these hybrid peptides provide any additional stability to the Q23 amyloid cores, in analogy to the stabilizing effect of HTT^NT on HTT exon1 amyloid. Stabilities were assessed by determining the concentration of monomer present when the amyloid assembly reaction reaches equilibrium (Supplementary Fig. 5)[41]. […] The results (Table 1) indicate some interesting trends."}, "Aβ42 aggregates": {"biological_target": "T1, Aβ42 aggregates (Homo sapiens, UniProt P05067)", "T1 construct": "purchased Keck Center (Keck Biotechnology Center at Yale University); obtained pre-purified", "T1 sequence (P05067 672-713)": "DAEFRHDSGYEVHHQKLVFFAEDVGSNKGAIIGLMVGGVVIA", "assay": "Global hydrogen–deuterium exchange mass spectrometry (HX-MS) of aggregates", "type": "physicochemical", "conditions": "for Global HX incorporation: not corrected for back-exchange", "procedure": "All HX-MS data were analysed using an Agilent 1100 series single quadruple ESI mass spectrometer. Aggregates were washed and incubated in D2O and the exchange reactions analysed after an appropriate exchange time. Global HX was analysed by simultaneous dissolution and MS analysis of the exchange reaction using a T-tube front end to the MS[62]; data were not corrected for back-exchange. Segmental exchange was performed as described. Briefly, fibrils were recovered from the exchange reaction by centrifugation (20,800g, 30 min), and in a 4 °C room to 20 μl ice-cold 8 M Gdn.HCl plus 0.1% formic acid was added to the pellets and mixed for 10 s, then 100 μl pepsin agarose (Sigma-Aldrich) in 0.1% cold formic acid was added and mixed for 10 s. The sample was immediately centrifuged to remove the immobilized pepsin (20,800g, 30 s) and the supernatant subjected to 4 °C LC-MS analysis."}, "[3]": {"assay": "Spontaneous aggregation kinetics by sedimentation-HPLC assay (disappearance of monomer)", "type": "physicochemical", "conditions": "22 μM start, after 35 days, PBS, 37 °C", "quoted_text": "Disaggregated peptide stock solutions were first checked for approximate concentration. All concentrations, for setting up the reaction and for assaying kinetics time points, were determined from integrated A214 HPLC (Agilent XDB-C18 4.6 × 50 mm column) peaks using standard curves individually constructed for each peptide from standard stock solutions calibrated via the A215 absorption[23][41]. […] Sodium azide was added to 0.05% (w/v) and pH adjusted to 7.4. After filtration through a 0.2 μm filter unit (Anotop 10) to get rid of aggregates, the solution was held at 4 °C while the t=0 concentration was determined (∼30 min). The reaction mixture was moved to 37 °C and kinetics monitored by the sedimentation and ThT assays on reaction aliquots and by CD.\nDuplicate time points were removed periodically, centrifuged 30 min at 436,000g followed by HPLC analysis of monomer concentration from the carefully removed supernatant[41].\nFor sedimentation and ThT kinetics, as well as kinetics underlying the n* and Cr determinations and inhibition kinetics studies, each plotted data point is derived from analysis of 2–3 independent reaction aliquots. Each aggregation study was independently carried out twice, with similar results obtained."}}, "note": "Several values for one entry are separate records, joined by “and”; a condition that tells them apart may be missing. Equal entries are not always repeated. Ends that are not written are not given here.", "data": [{"substance": "Aβ40: full-length Aβ peptide ending at residue 40", "values": [{"measurement": "Exchange of the C-terminal 35–42/35–40 fragment after exposure of fibrils to D2O", "setting": "[1]", "result": "essentially fully exchanged"}, {"measurement": "Cr of fibrils", "setting": "[2]", "result": "1.06 ± 0.18", "unit": "µM"}]}, {"substance": "Aβ42: full-length Aβ peptide ending at residue 42", "values": [{"measurement": "Global HX incorporation", "setting": "Aβ42 aggregates; Aβ42 aggregated alone", "result": "14.8±1.2", "unit": "deuteriums"}, {"measurement": "Global HX incorporation", "setting": "Aβ42 aggregates; Aβ42 aggregates grown in the presence of K10G2Aβ31–42", "result": "25.6±1.2", "unit": "deuteriums"}, {"measurement": "Newly unprotected amide hydrogens", "setting": "Aβ42 aggregates; Aβ42 aggregates grown with K10G2Aβ31–42 vs Aβ42 alone", "result": "~11"}, {"measurement": "Exchange of the C-terminal 35–42/35–40 fragment after exposure of fibrils to D2O", "setting": "[1]", "result": "resists exchange"}, {"measurement": "Cr of fibrils", "setting": "[2]", "result": "0.11 ± 0.01 µM and 0.11 µM"}]}, {"substance": "H-KKQQQQQQQQQQQQQQQQQQQQQQQKKAIIGLMVGGVVIA-OH", "values": [{"measurement": "fraction of reaction mixture sedimentable at early time", "result": 15, "unit": "%"}]}, {"substance": "KKKKKKKKKKGGIIGLMVGGVVIA [K10G2Aβ31–42]", "values": [{"measurement": "Monomer remaining in the reaction mixture", "setting": "[3]", "result": "~13", "unit": "µM"}]}]}
